Measurements from patent publication US20230381350A1 (PRECIRIX N V, published 2023).
Changes are numbered by the printed parent chain. Names and notes keep the numbering of the source. Blank lines part the entries; values can stand above or below the binder they belong to.

Key:
[1] = molecular target: T1, murine FAP expressed on cells (murine, UniProt P97321 1-761); test: saturation binding of 99mTc-labelled VHH on murine FAP-expressing HEK-293 cells
T1 construct: also called murine FAP cell surface protein
T1 sequence: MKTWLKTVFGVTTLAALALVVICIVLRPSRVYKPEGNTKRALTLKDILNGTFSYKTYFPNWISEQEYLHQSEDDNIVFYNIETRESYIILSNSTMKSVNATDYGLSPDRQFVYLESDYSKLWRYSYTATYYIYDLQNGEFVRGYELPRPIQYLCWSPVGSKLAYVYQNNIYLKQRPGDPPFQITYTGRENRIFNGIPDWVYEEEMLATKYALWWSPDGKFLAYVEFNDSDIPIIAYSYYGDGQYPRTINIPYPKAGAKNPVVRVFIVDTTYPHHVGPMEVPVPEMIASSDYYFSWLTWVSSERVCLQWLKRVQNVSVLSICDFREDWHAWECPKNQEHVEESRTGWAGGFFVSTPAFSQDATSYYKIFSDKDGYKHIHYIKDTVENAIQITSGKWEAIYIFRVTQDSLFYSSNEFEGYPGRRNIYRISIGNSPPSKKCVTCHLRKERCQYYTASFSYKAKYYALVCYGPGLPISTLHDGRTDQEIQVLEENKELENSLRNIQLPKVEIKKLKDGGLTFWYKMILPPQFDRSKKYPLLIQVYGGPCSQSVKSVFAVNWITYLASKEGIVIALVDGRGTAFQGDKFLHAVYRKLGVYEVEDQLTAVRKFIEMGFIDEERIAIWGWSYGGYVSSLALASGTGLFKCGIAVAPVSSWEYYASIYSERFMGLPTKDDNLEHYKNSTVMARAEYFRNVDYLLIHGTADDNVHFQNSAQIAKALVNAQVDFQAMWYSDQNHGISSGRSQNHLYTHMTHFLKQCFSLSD
Experimental: (§1) Next, the different cell lines were incubated with serial dilutions with concentrations ranging from 0 to 300 nM of the different ^99mTc-labelled His₆-tagged VHHs. A 100-fold excess of the corresponding unlabeled VHH was added in parallel to saturate the human or murine FAP proteins on the cancer cell surface, to assess non-specific binding. The resulting EC50 values for each of the VHHs are depicted in Table 8. […] We confirmed that ^99mTc-labeled VHH B4 only binds murine FAP cell surface protein, while VHH B3 only binds human FAP cell surface molecules in vitro.

[2] = molecular target: T2, human FAP expressed on cells (human, UniProt Q12884 1-760); test: saturation binding of 99mTc-labelled VHH on human FAP-expressing GM05389 cells (mean ± SD, n = 3)
T2 construct: also called human FAP cell surface protein; human FAP receptor
T2 sequence: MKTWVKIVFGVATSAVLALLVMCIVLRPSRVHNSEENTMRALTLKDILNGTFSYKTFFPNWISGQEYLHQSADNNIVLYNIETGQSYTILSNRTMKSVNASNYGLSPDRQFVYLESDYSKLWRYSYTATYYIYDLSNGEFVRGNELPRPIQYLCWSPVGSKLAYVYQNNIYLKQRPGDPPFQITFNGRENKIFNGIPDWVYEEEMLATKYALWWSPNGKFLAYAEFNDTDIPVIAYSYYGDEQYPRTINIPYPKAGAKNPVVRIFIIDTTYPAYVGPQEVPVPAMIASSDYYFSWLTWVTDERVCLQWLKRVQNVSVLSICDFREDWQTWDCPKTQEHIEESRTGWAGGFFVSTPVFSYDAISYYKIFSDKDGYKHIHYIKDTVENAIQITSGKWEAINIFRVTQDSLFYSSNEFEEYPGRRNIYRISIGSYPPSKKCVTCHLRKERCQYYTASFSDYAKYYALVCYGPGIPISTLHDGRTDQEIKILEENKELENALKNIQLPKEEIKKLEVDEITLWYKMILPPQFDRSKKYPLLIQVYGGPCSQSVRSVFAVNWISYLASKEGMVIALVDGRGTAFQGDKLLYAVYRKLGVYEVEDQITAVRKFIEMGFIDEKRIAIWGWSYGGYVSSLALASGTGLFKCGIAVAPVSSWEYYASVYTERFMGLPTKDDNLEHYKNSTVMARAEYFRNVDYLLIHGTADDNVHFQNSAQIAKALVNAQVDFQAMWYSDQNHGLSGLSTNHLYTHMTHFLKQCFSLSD
Experimental: (§2) Next, we describe the in vitro and in vivo human and murine FAP binding potential of different VHHs after radiolabelling with the diagnostic radioisotope ^99mTc. […] His₆-tagged human/murine FAP-targeting VHHs were radiolabelled with the diagnostic radioisotope ^99mTc, according to the radiochemical procedure described in Example 3.
as §1

[3] = molecular target: T2, human FAP expressed on cells; test: saturation binding of 99mTc-labelled VHH on human FAP-expressing HEK-293 cells (mean ± SD, n = 3)
Experimental: as §2, §1

[4] = molecular target: T2, human FAP expressed on cells; test: saturation binding of 99mTc-labelled VHH on human FAP-expressing GM05389 cells
Experimental: as §1

[5] = molecular target: T1, murine FAP expressed on cells; test: saturation binding of 99mTc-labelled VHH on murine FAP-expressing HEK-293 cells (mean ± SD, n = 3)
Experimental: as §2, §1

[6] = molecular target: T3, human DPP IV recombinant protein (human, UniProt P27487 29-766); test: ELISA, coated human DPP IV, HA-His6-tagged VHH extract, anti-HA detection
T3 construct: extracellular domain; Bought protein; also called Dipeptidyl amino-peptidase IV
T3 sequence (P27487 29-766): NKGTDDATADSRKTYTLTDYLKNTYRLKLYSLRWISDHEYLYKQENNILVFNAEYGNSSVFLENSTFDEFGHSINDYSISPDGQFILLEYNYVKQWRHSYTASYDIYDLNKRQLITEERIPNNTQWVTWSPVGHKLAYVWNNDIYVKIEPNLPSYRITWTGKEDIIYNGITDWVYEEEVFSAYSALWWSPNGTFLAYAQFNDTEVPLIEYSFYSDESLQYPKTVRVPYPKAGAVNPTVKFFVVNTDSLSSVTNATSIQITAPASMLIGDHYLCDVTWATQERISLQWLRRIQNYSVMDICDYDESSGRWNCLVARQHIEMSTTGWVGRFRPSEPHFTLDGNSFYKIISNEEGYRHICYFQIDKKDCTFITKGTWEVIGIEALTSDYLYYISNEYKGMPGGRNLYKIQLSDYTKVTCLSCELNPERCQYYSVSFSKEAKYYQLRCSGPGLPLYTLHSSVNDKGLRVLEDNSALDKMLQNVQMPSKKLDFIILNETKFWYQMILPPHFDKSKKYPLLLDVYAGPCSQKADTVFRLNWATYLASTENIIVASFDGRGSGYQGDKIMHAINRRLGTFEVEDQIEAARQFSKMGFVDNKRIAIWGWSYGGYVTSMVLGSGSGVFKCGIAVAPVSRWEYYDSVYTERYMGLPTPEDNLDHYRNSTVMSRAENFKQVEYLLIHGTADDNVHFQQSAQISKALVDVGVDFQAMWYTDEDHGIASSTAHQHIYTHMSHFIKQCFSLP
Experimental: (§3) The day before measurement, 0.1 μg recombinant protein at a concentration of 1 μg/mL in 100 mM NaHCO₃, pH 8.2 was coated in a 96-well ELISA plate (Nunc MaxiSorp). Per VHH clone also a blank coated well was foreseen (only buffer). The wells were overcoated with protein-free T20 (PBS) blocking buffer (Pierce). After washing with PBS, pH7.4, 0.05% Tween, VHH-containing bacterial freeze-thaw extract was added to every well. Binding of HA-His₆-tagged VHHs was detected by using mouse anti-HA.11 epitope tag (clone 16B12, Biolegend) as the primary Ab and goat anti-mouse IgG (whole molecule) alkaline phosphatase conjugate (Sigma-Aldrich) as the secondary Ab, with thorough washing with PBS, pH 7.4, 0.05% Tween in between. Signals were developed using phosphatase substrate (Sigma-Aldrich) in AP blot buffer (100 mM NaCl, 50 mM MgCl₂, 100 mM Tris, pH 9.5). The absorbance was determined at 405 nm using an absorbance microplate reader (Molecular Devices). Per clone the ratio was determined between the absorbance in the antigen-coated well versus the well without antigen.

[7] = molecular target: T4, human FAP recombinant protein (human, UniProt Q12884 26-760); test: ELISA, coated human FAP recombinant protein, HA-His6-tagged VHH extract, anti-HA detection
T4 construct: The protein was biotinylated with sulfo-NHS-SS-biotin for bio-layer interferometry; also called extracellular domain of human FAP with N-terminal His6-tag
T4 sequence: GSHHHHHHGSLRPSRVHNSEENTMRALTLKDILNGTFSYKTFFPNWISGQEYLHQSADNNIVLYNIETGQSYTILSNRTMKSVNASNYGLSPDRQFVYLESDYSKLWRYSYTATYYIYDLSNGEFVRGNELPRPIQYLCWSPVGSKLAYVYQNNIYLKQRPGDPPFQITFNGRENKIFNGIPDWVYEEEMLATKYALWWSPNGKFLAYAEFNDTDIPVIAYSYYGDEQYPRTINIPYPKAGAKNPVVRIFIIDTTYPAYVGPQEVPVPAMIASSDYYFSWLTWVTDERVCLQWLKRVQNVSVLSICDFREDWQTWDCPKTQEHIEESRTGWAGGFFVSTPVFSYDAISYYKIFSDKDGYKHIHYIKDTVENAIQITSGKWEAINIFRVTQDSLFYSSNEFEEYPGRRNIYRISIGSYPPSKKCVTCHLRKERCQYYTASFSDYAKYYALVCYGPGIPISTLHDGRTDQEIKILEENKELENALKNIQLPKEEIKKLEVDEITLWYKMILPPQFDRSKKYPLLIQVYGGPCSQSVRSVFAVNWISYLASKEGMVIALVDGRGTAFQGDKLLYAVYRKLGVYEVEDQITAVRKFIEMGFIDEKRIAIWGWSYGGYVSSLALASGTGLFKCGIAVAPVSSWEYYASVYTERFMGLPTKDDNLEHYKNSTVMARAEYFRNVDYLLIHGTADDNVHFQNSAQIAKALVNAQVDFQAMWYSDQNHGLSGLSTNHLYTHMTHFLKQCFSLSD
Experimental: as §3

[8] = molecular target: T3, human DPP IV recombinant protein; test: ELISA on coated recombinant protein, VHH-containing bacterial extract, anti-HA detection, signal-to-background ratio
Experimental: as §3

[9] = molecular target: T2, human FAP expressed on cells; test: saturation binding of 131I-SGMIB-labelled VHH on human FAP-transfected HEK-293 cells; HEK-293 cells
Experimental: (§4) In a first part, the in vitro behaviour was assessed by means of investigating their cellular binding and retention overtime. The binding potential of the resulting radioconjugates was assessed to confirm that this was not affected by the introduction of ¹³¹I-SGMIB into the amino acid sequence of the VHH. To this, human FAP-expressing GM05389 (His₆-tagged and untagged VHH B1) and human FAP-transfected HEK-293 cells (His₆-tagged and untagged VHH B1; His₆-tagged VHH B2) were incubated with serial dilutions with concentrations ranging from 0 to 33 nM of the different ¹³¹I-labelled VHHs. A 100-fold excess of the corresponding unlabeled VHH was added in parallel to saturate the human FAP receptors expressed on cancer cells, to assess non-specific binding.

[10] = molecular target: T2, human FAP expressed on cells; test: saturation binding of 131I-SGMIB-labelled VHH on human FAP-expressing GM05389 cells; GM05389 cells
Experimental: as §4

B1: 99mTc-labeled His6-tagged VHH B3 (VHH)
VHH: DVQLVESGGGLVQAGGSLRLSCAVSGRLFSTNAMGWYRQAPGKQRELVAGITGGDRSNYADSVKGRFTISRDNGKNTLYLQMNSLKPEDTAVYYCNFYPPIVGDYWGQGTQVTVSS
modifications: [99mTc(H2O)3(CO)3] complexed at the His6-tag
notes: also called 99mTc-B3
- binding result [1]: no binding (tested: 0 to 300 nM)
- EC50 [2]: 2.7 nM
- EC50 [3]: 2.4 nM

B3: HA-His6-tagged VHH B2 (VHH)
VHH: QVQLQESGGGLVQAGGSLRLSCAVSGSISSANSMGWYRQAPGKQRDVVAGLTTGGRSHYADSVKGRFTISRDNAKNTVYLQMNSLKAEDTAVYYCNLWPPVQGYWGQGTQVTVSS
notes: also called B2 with HA-His6-tag
- signal-to-background ratio [6]: ~1
- signal-to-background ratio [7]: > 25
- binding result [8]: no binding

B4: 131I-labeled His6-tagged VHH B2 (VHH)
VHH: B3 VHH with Q1D, Q5V
modifications: [131I]SGMIB conjugated to lysine side-chain amines
notes: also called 131I-B2; His6-tagged B2
- EC50 [9]: 3.8 nM

Other lines, results leading:

- binding result [4]: no binding (tested: 0 to 300 nM)
- EC50 [5]: 7.6 nM
B2: 99mTc-labeled His6-tagged VHH B4 (VHH)
VHH: DVQLVESGGGLVQVGGSLRLSCVASGFTFSSYYMSWVRQAPGKGLEWVASIYADGDMTYYADSVRGRFTISRDNAKNTLYLQMNSLKSEDTAVYYCAKDPLPPYHVNQGTQVTVSS
modifications: [99mTc(H2O)3(CO)3] complexed at the His6-tag
notes: also called 99mTc-B4

- EC50 [10]: 0.6 nM
- EC50 [9]: 1.4 nM
B5: 131I-labeled His6-tagged VHH B1 (VHH)
VHH: DVQLVESGGGLVQPGGSLRLSCVASGRLSSSNSMAWYRQVPGKRRELVAGITGGGETNYADFVGGRFTISRDNAKNGLYLQLNGLKPEDTAAYYCNFWPPLINYWGQGTQVTVSS
modifications: [131I]SGMIB conjugated to lysine side-chain amines
notes: also called 131I-B1; His6-tagged B1

- EC50 [10]: 2.7 nM
- EC50 [9]: 2.8 nM
B6: 131I-labeled untagged VHH B1 (VHH)
VHH: B5 VHH
modifications: [131I]SGMIB conjugated to lysine side-chain amines
notes: also called untagged B1; [131I]SGMIB-VHH

- binding result [4]: no binding (tested: 0 to 300 nM)
- binding result [1]: no binding (tested: 0 to 300 nM)
B7: 99mTc-labeled non-targeting control VHH R3B23 (VHH)
VHH: QVQLQESGGGSVQAGGSLRLSCAASGDTGYMGWFRQAPGKEREGVAVINSDSGVGSTYYADSVKGRFTISRDNAKNTVYLQMNSLKPEDTAIYYCAAGHFSDYVSPWTWREIYRYNVWGQGTQVTVSS
modifications: 99mTc label (labelling is described at the His6-tag)
notes: also called 99mTc-R3B23
